From the Human Domainome abundance scans (Beltran et al. 2025)
± gives the uncertainty stated by the source.

B1: SAM and SH3 domain-containing protein 1, residues 630 to 700; numbered along this chain, O94885 (parent)
chain: GRPPQPKSVEDLLDRINLKEHMPTFLFNGYEDLDTFKLLEEEDLDELNIRDPEHRAVLLTAVELLQEYDSN

Variants of: B1
Test: abundance fitness (aPCA) (normalised: wild type 0, dead -1); higher = more abundant; growth selection in yeast, the domain comes from the species named
Conditions: Homo sapiens

Point of comparison: GRPPQPKSVEDLVDRINLKEHMPTFLFNGYEDLDTFKLLEEEDLDELNIRDPEHRAVLLTAVELLQEYDSN, abundance fitness -1 ± 0.085. Against it:
- GRPPQPKSVEDVLDRINLKEHMPTFLFNGYEDLDTFKLLEEEDLDELNIRDPEHRAVLLTAVELLQEYDSN — higher, -0.464 ± 0.045
- GRPPQPKSVEDYLDRINLKEHMPTFLFNGYEDLDTFKLLEEEDLDELNIRDPEHRAVLLTAVELLQEYDSN — higher, -0.672 ± 0.087
- GRPPQPKSVEDLADRINLKEHMPTFLFNGYEDLDTFKLLEEEDLDELNIRDPEHRAVLLTAVELLQEYDSN — higher, -0.788 ± 0.075
- GRPPQPKSVEDLCDRINLKEHMPTFLFNGYEDLDTFKLLEEEDLDELNIRDPEHRAVLLTAVELLQEYDSN — within error, -0.946 ± 0.1
- GRPPQPKSVEDLDDRINLKEHMPTFLFNGYEDLDTFKLLEEEDLDELNIRDPEHRAVLLTAVELLQEYDSN — higher, -0.762 ± 0.1
- GRPPQPKSVEDLEDRINLKEHMPTFLFNGYEDLDTFKLLEEEDLDELNIRDPEHRAVLLTAVELLQEYDSN — higher, -0.572 ± 0.081
- GRPPQPKSVEDLFDRINLKEHMPTFLFNGYEDLDTFKLLEEEDLDELNIRDPEHRAVLLTAVELLQEYDSN — higher, -0.576 ± 0.071
- GRPPQPKSVEDLGDRINLKEHMPTFLFNGYEDLDTFKLLEEEDLDELNIRDPEHRAVLLTAVELLQEYDSN — higher, -0.752 ± 0.072
- GRPPQPKSVEDLHDRINLKEHMPTFLFNGYEDLDTFKLLEEEDLDELNIRDPEHRAVLLTAVELLQEYDSN — higher, -0.801 ± 0.096
- GRPPQPKSVEDLIDRINLKEHMPTFLFNGYEDLDTFKLLEEEDLDELNIRDPEHRAVLLTAVELLQEYDSN — within error, -1.04 ± 0.11
- GRPPQPKSVEDLKDRINLKEHMPTFLFNGYEDLDTFKLLEEEDLDELNIRDPEHRAVLLTAVELLQEYDSN — higher, -0.715 ± 0.08
- GRPPQPKSVEDLMDRINLKEHMPTFLFNGYEDLDTFKLLEEEDLDELNIRDPEHRAVLLTAVELLQEYDSN — higher, -0.724 ± 0.077
- GRPPQPKSVEDLNDRINLKEHMPTFLFNGYEDLDTFKLLEEEDLDELNIRDPEHRAVLLTAVELLQEYDSN — higher, -0.802 ± 0.091
- GRPPQPKSVEDLPDRINLKEHMPTFLFNGYEDLDTFKLLEEEDLDELNIRDPEHRAVLLTAVELLQEYDSN — higher, -0.71 ± 0.07
- GRPPQPKSVEDLQDRINLKEHMPTFLFNGYEDLDTFKLLEEEDLDELNIRDPEHRAVLLTAVELLQEYDSN — higher, -0.447 ± 0.081
- GRPPQPKSVEDLRDRINLKEHMPTFLFNGYEDLDTFKLLEEEDLDELNIRDPEHRAVLLTAVELLQEYDSN — higher, -0.803 ± 0.06
- GRPPQPKSVEDLSDRINLKEHMPTFLFNGYEDLDTFKLLEEEDLDELNIRDPEHRAVLLTAVELLQEYDSN — within error, -0.887 ± 0.068
- GRPPQPKSVEDLTDRINLKEHMPTFLFNGYEDLDTFKLLEEEDLDELNIRDPEHRAVLLTAVELLQEYDSN — within error, -0.861 ± 0.077
- GRPPQPKSVEDLWDRINLKEHMPTFLFNGYEDLDTFKLLEEEDLDELNIRDPEHRAVLLTAVELLQEYDSN — within error, -0.99 ± 0.095
- GRPPQPKSVEDLYDRINLKEHMPTFLFNGYEDLDTFKLLEEEDLDELNIRDPEHRAVLLTAVELLQEYDSN — within error, -0.905 ± 0.096
- GRPPQPKSVEDLLCRINLKEHMPTFLFNGYEDLDTFKLLEEEDLDELNIRDPEHRAVLLTAVELLQEYDSN — higher, -0.215 ± 0.054
- GRPPQPKSVEDLLFRINLKEHMPTFLFNGYEDLDTFKLLEEEDLDELNIRDPEHRAVLLTAVELLQEYDSN — higher, -0.734 ± 0.068
- GRPPQPKSVEDLLGRINLKEHMPTFLFNGYEDLDTFKLLEEEDLDELNIRDPEHRAVLLTAVELLQEYDSN — higher, -0.218 ± 0.055
- GRPPQPKSVEDLLIRINLKEHMPTFLFNGYEDLDTFKLLEEEDLDELNIRDPEHRAVLLTAVELLQEYDSN — higher, -0.293 ± 0.054
- GRPPQPKSVEDLLKRINLKEHMPTFLFNGYEDLDTFKLLEEEDLDELNIRDPEHRAVLLTAVELLQEYDSN — higher, -0.273 ± 0.065
- GRPPQPKSVEDLLMRINLKEHMPTFLFNGYEDLDTFKLLEEEDLDELNIRDPEHRAVLLTAVELLQEYDSN — higher, -0.34 ± 0.066
- GRPPQPKSVEDLLNRINLKEHMPTFLFNGYEDLDTFKLLEEEDLDELNIRDPEHRAVLLTAVELLQEYDSN — higher, -0.131 ± 0.048
- GRPPQPKSVEDLLPRINLKEHMPTFLFNGYEDLDTFKLLEEEDLDELNIRDPEHRAVLLTAVELLQEYDSN — within error, -0.834 ± 0.086
- GRPPQPKSVEDLLQRINLKEHMPTFLFNGYEDLDTFKLLEEEDLDELNIRDPEHRAVLLTAVELLQEYDSN — higher, -0.269 ± 0.07
- GRPPQPKSVEDLLRRINLKEHMPTFLFNGYEDLDTFKLLEEEDLDELNIRDPEHRAVLLTAVELLQEYDSN — higher, -0.434 ± 0.055
- GRPPQPKSVEDLLSRINLKEHMPTFLFNGYEDLDTFKLLEEEDLDELNIRDPEHRAVLLTAVELLQEYDSN — higher, -0.168 ± 0.039
- GRPPQPKSVEDLLTRINLKEHMPTFLFNGYEDLDTFKLLEEEDLDELNIRDPEHRAVLLTAVELLQEYDSN — higher, -0.086 ± 0.045
- GRPPQPKSVEDLLVRINLKEHMPTFLFNGYEDLDTFKLLEEEDLDELNIRDPEHRAVLLTAVELLQEYDSN — higher, -0.287 ± 0.047
- GRPPQPKSVEDLLYRINLKEHMPTFLFNGYEDLDTFKLLEEEDLDELNIRDPEHRAVLLTAVELLQEYDSN — higher, -0.602 ± 0.069
- GRPPQPKSVEDLLDAINLKEHMPTFLFNGYEDLDTFKLLEEEDLDELNIRDPEHRAVLLTAVELLQEYDSN — higher, 0.055 ± 0.038
- GRPPQPKSVEDLLDCINLKEHMPTFLFNGYEDLDTFKLLEEEDLDELNIRDPEHRAVLLTAVELLQEYDSN — higher, -0.374 ± 0.059
- GRPPQPKSVEDLLDDINLKEHMPTFLFNGYEDLDTFKLLEEEDLDELNIRDPEHRAVLLTAVELLQEYDSN — higher, -0.454 ± 0.065
